Assay results reported in US20240270839A1 (ELPISCIENCE SUZHOU BIOPHARMA, published 2024).
Changes are numbered by the printed parent chain. Values joined by “and” are separate entries in the source; they are usually repeats but may differ in a detail not shown here. Equal values may be shown once. Read-outs that look alike come from different tables or passages of the source.

B1: ch60F11 (antibody, V domains shown)
VH: QVQLQQPGAELVKPGASVKLSCKASGYTFTSYWMHWVKQRPGQGLEWIGMIHPNSGSTNYNEKFKSKATLTVDKSSSTAYMQLSSLTSEDSAVYYCARMGLGNAMDYWGQGTSVTVSS
VL: DIVMTQSPSSLTVTAGEKVTLSCKSSQSLLNSGNQRNYLTWYQQKPGQPPKLLIYWASTRESGVPDRFTGSGSGTDFTLTISSVQAEDLAVYYCQNAYSYPLTFGAGTKLELK
B2: ch22E12 (antibody, V domains shown)
VH: QVQLQQPGTELVKTGTSVKLSCKASGYTFTNWVHWVIQRPGQGLEWIGEINPTNGRSNYNEKFKKKATLTLDRSSTTAYMQLSSLTSEDSAVYFCAGIYYGNSFAHWGQGTLVTVSA
VL: B1 VL with R36K, A57S, Y93H, A97N, S99Y
B3: ch97A9 (antibody, V domains shown)
VH: QVQLQQSGPELVKPGASMKLSCKASGYSFTRNDINWVKQRPGQGLEWIGLSYPRDGTTQYNGKFKGKATLTVDTSSSTAYMELRSLTSEDSAVYFCARGYYGNSFAYWGQGTLVTVSA
VL: B1 VL with L21M, R36K, D76Y, Y93F, A97D, S99Y, Y100F, L102Y, A106G, L112I
B4: 97A9 (antibody, V domains shown)
VH: B3 VH
VL: B1 VL with L21M, R36K, D76Y, Y93F, A97D, S99Y, Y100F, L102Y, A106G, L112I
notes: mouse hybridoma antibody, purified; also called clone 97A9
B5: hu22E12.H1L2-ADE (antibody, human IgG1)
heavy: QVQLVQSGAEVKKPGASVKVSCKASGYTFTNWVHWVRQAPGQGLEWMGEINPTNARSNYNEKFKKRVTMTRDTSTSTVYMELSSLRSEDTAVYYCARIYYGNSFAHWGQGTLVTVSSASTKGPSVFPLAPSSKSTSGGTAALGCLVKDYFPEPVTVSWNSGALTSGVHTFPAVLQSSGLYSLSSVVTVPSSSLGTQTYICNVNHKPSNTKVDKKVEPKSCDKTHTCPPCPAPELLAGPDVFLFPPKPKDTLMISRTPEVTCVVVDVSHEDPEVKFNWYVDGVEVHNAKTKPREEQYNSTYRVVSVLTVLHQDWLNGKEYKCKVSNKALPAPEEKTISKAKGQPREPQVYTLPPSREEMTKNQVSLTCLVKGFYPSDIAVEWESNGQPENNYKTTPPVLDSDGSFFLYSKLTVDKSRWQQGNVFSCSVMHEALHNHYTQKSLSLSPGK
VL: DIVMTQSPDSLAVSLGERATINCKSSQSLLNAGNQKNYLTWYQQKPGQPPKLLIYWSSTRESGVPDRFSGSGSGTDFTLTISSLQAEDVAVYHCQNNYYYPLTFGGGTKLEIK
B6: hu22E12.H1L2-VLPLL (antibody, human IgG1)
heavy: B5 heavy with L235V, A236G, D239S, F243L, R292P, Y300L, E332I, P396L
VL: B5 VL
B7: hu22E12.H1L2-DLE (antibody, human IgG1)
heavy: B5 heavy with A236G, A330L
VL: B5 VL
B8: hu22E12.H1L2-DE (antibody, human IgG1)
heavy: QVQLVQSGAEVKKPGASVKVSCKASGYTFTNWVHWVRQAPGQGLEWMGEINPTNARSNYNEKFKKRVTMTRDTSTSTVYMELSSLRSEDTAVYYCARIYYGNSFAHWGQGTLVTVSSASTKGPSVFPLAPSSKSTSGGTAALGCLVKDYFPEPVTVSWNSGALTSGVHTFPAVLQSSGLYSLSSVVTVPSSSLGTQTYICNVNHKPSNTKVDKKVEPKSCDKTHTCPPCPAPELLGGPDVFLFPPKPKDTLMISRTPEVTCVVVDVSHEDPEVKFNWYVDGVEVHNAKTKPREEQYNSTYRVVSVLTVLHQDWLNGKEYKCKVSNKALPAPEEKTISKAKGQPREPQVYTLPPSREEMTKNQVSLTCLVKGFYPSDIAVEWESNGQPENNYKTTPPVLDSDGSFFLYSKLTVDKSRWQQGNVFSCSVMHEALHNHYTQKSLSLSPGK
VL: B5 VL
B9: hu22E12.H1L2 (antibody, V domains shown)
VH: QVQLVQSGAEVKKPGASVKVSCKASGYTFTNWVHWVRQAPGQGLEWMGEINPTNARSNYNEKFKKRVTMTRDTSTSTVYMELSSLRSEDTAVYYCARIYYGNSFAHWGQGTLVTVSS
VL: B5 VL
notes: humanized 22E12
B10: ch35B4 (antibody, V domains shown)
VH: EAKLVESGGDFMQPGGSLKLSCAASGFTLSSYALSWVRQTPEKRLEWVAYISNLGGSTFYPDTVKGRFTISRDNARNTLFLQMSSLQSEDTAIYYCATHLYNYDAFASWGQGTLVTVSA
VL: QIVLSQSPAILSASPGEKVTMTCRASSSVNYIHWYQQKPGSSPKAWIYATSNLASGVPTRFSGSGSGTSYSLTIDRVEAEDAATYYCQQWNSNPLTFGAGTKLELK
B11: 35B4 (antibody, V domains shown)
VH: B10 VH
VL: B10 VL
notes: mouse hybridoma antibody, purified; also called clone 35B4
B12: ch33G12 (antibody, V domains shown)
VH: EVKLVESGGGLVQPGGSLKLSCAASGFTFSRYAMSWVRQTPEKRLEWVAYISIGGTTYYPDTIKGRFTISRDNAKNTLYLQMSSLKSEDTAMYYCTRHYYGHDVMDYWGQGTSVTVSS
VL: B10 VL with A9T, S26T, N30S, I32M, Y35F, A45P, T59A, D75S, N91S, S92R
B13: ch99H8 (antibody, V domains shown)
VH: QVQLQQSGPELVKPGASVKLSCKASGYSFTNFDINWVKQRPGQGLQWIGRLYPRDGTTTYNEKFKGKASLTVDTSSTTSYMDLHSLTSEDSAVYFCVRGNYGNSFAYWGQGTLVTVSA
VL: DIVMTQSPSSLTVTAREKVIMNCKSSQSLFNSGNQKNYLTWYQQKPGQSPKLLIYWASTRQSGVPDRFTGSGSGTDFTLTISTVQAEDLAVYFCQNGFSFPYTFGGGTKLEMN
B14: 99H8 (antibody, V domains shown)
VH: B13 VH
VL: B13 VL
notes: mouse hybridoma antibody, purified; also called clone 99H8
B15: hu35B4.H1L2-ADE (antibody, human IgG1)
heavy: EVQLLESGGGLVQPGGSLRLSCAASGFTLSSYALSWVRQAPGKGLEWVSYISNLGGSTFYPDTVKGRFTISRDNSKNTLYLQMNSLRAEDTAVYYCAKHLYNYDAFASWGQGTLVTVSSASTKGPSVFPLAPSSKSTSGGTAALGCLVKDYFPEPVTVSWNSGALTSGVHTFPAVLQSSGLYSLSSVVTVPSSSLGTQTYICNVNHKPSNTKVDKKVEPKSCDKTHTCPPCPAPELLAGPDVFLFPPKPKDTLMISRTPEVTCVVVDVSHEDPEVKFNWYVDGVEVHNAKTKPREEQYNSTYRVVSVLTVLHQDWLNGKEYKCKVSNKALPAPEEKTISKAKGQPREPQVYTLPPSREEMTKNQVSLTCLVKGFYPSDIAVEWESNGQPENNYKTTPPVLDSDGSFFLYSKLTVDKSRWQQGNVFSCSVMHEALHNHYTQKSLSLSPGK
VL: DIQLTQSPSFLSASVGDRVTITCRASSSVNYIHWYQQKPGKAPKALIYATSNLASGVPSRFSGSGSGTEYTLTISSLQPEDFATYYCQQWNSNPLTFGQGTKLEIK
B16: hu35B4.H1L2-VLPLL (antibody, human IgG1)
heavy: B15 heavy with L237V, A238G, D241S, F245L, R294P, Y302L, E334I, P398L
VL: B15 VL
B17: hu35B4.H1L2-DLE (antibody, human IgG1)
heavy: B15 heavy with A238G, A332L
VL: B15 VL
B18: hu35B4.H1L2-DE (antibody, human IgG1)
heavy: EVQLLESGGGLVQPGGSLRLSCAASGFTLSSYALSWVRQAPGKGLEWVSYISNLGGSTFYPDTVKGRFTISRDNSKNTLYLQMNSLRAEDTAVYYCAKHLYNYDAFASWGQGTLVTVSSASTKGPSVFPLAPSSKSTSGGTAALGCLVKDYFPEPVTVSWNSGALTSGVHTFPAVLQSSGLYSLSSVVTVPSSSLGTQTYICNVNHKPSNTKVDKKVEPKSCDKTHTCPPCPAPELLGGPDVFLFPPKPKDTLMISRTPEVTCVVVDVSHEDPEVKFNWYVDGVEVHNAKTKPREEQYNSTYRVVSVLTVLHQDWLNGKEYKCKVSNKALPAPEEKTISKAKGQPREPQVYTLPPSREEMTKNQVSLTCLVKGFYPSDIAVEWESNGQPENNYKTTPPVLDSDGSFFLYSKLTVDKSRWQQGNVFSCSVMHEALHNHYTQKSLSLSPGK
VL: B15 VL
B19: hu35B4.H1L2 (antibody, V domains shown)
VH: EVQLLESGGGLVQPGGSLRLSCAASGFTLSSYALSWVRQAPGKGLEWVSYISNLGGSTFYPDTVKGRFTISRDNSKNTLYLQMNSLRAEDTAVYYCAKHLYNYDAFASWGQGTLVTVSS
VL: B15 VL
notes: humanized 35B4

Legend:
[1] = target: human CLDN18.2 (hCLDN18.2), expressed on cells (human); assay: cell-based or functional assay
[2] = target: human CLDN18.2 (hCLDN18.2), expressed on cells (human); assay: cell-based or functional assay; remark: listed apart in the source
[3] = target: T1, human CLDN18.2 (hCLDN18.2), expressed on cells (human); assay: FACS, MFC cells over-expressing hCLDN18.2
T1 construct: the constructs in the cell lines are not described; also called Claudin18.2; HEK293-hCLDN18.2

[4] = target: T1, human CLDN18.2 (hCLDN18.2), expressed …; assay: FACS, SNU620 cells (endogenous CLDN18.2)
[5] = target: T1, human CLDN18.2 (hCLDN18.2), expressed …; assay: FACS, HEK293/hCLDN18.2 cells
[6] = target: T1, human CLDN18.2 (hCLDN18.2), expressed …; assay: FACS, SNU620 cells over-expressing hCLDN18.2
[7] = target: T1, human CLDN18.2 (hCLDN18.2), expressed …; assay: cell-based or functional assay; remark: listed apart in the source

Binder | PBMC VS NUGC4 ADCC (EC50 nM) [1] | ADCC EC50 (nM), NK-CD16a effector cells [2] | ADCC EC50 (nM), NK-CD16a effector cells [7] | other results
B1 | 8.69 nM |  |  | 
B2 | 1.06 nM | 0.126 nM |  | EC50 [3]: 1060 pM and 943 pM
B3 | 6.93 nM |  |  | 
B4 |  |  |  | EC50 [4]: 3300 pM; EC50 [5]: 1600 pM
B5 |  | 0.00765 nM |  | 
B6 |  | 0.00997 nM |  | 
B7 |  | 0.00503 nM |  | 
B8 |  | 0.00637 nM |  | 
B9 |  | 0.144 nM |  | EC50 [3]: 1320 pM
B10 | 4.05 nM |  | 0.0803 nM | EC50 [6]: 419 pM and 442 pM
B11 |  |  |  | EC50 [4]: 3800 pM; EC50 [5]: 850 pM
B12 | 0.458 nM |  |  | 
B13 | 3.31 nM |  |  | 
B14 |  |  |  | EC50 [4]: 19000 pM; EC50 [5]: 1100 pM
B15 |  |  | 7.1e-05 nM | 
B16 |  |  | 9.43e-05 nM | 
B17 |  |  | 1.32e-05 nM | 
B18 |  |  | 2.75e-05 nM | 
B19 |  |  | 0.02 nM | EC50 [6]: 253 pM
